Results on seven molecules are retold here after paper PMC4960239, “Flavoprotein-Mediated Tellurite Reduction: Structural Basis and Applications to the Synthesis of Tellurium-Containing Nanostructures” (Frontiers in Microbiology, 2016).

One series has as its system O=[Te](O)O. Nature of the series: purified protein. The series is classed as biochemical, Escherichia coli. The following applies: 1 mM beta-mercaptoethanol.
In a further series the target is T1, E3 (Escherichia coli, UniProt P0A9P0).
T1 construct: gene lpdA; His-tagged full-length, ASKA clone, HisTrap purified, ~56 kDa
The series is described as follows: Te0 formation, non-linear fit. Format: biochemical. The following applies: 1 mM NADPH, 1 mM beta-mercaptoethanol, pH 6, 37 °C; substrate inhibition.

The target of the next series is T2, TrxB (Escherichia coli, UniProt P0A9P4).
T2 construct: His-tagged full-length, ASKA clone, HisTrap purified, ~35 kDa
Nature of the series: Te0 formation, non-linear fit. The series is classed as biochemical. The following applies: 1 mM NADPH, 1 mM beta-mercaptoethanol, pH 10, 37 °C; substrate inhibition.

Another series has as its target T3, GorA (Escherichia coli, UniProt P06715).
T3 construct: gene gor; His-tagged full-length, ASKA clone, HisTrap purified, ~49 kDa
The series is described as follows: Te0 formation, non-linear fit. Format: biochemical. The following applies: 1 mM NADPH, 1 mM beta-mercaptoethanol, pH 9, 37 °C; substrate inhibition.

T2 sequence (P0A9P4 2-321): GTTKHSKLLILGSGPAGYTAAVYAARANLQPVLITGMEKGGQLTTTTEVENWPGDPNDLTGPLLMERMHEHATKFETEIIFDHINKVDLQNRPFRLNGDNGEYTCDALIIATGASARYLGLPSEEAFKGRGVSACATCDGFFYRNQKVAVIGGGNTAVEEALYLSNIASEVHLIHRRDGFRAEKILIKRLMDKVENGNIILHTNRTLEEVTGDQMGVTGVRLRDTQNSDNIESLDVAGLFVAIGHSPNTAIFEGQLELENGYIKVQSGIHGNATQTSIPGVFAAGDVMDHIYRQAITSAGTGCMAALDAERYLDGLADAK
T1 sequence (P0A9P0 2-474): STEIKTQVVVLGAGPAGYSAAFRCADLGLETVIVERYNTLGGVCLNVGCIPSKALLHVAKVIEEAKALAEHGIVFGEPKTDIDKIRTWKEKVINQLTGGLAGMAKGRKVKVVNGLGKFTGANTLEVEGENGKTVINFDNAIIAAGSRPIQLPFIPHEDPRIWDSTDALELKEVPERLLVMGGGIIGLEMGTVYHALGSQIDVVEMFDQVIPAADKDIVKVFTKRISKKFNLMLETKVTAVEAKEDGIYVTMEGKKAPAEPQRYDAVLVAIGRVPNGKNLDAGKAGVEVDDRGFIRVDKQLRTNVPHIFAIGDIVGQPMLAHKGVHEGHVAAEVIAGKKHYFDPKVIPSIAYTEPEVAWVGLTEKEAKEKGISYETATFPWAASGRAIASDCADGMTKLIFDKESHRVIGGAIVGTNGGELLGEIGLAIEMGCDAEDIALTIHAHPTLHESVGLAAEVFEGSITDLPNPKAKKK
T3 sequence (P06715 whole entry): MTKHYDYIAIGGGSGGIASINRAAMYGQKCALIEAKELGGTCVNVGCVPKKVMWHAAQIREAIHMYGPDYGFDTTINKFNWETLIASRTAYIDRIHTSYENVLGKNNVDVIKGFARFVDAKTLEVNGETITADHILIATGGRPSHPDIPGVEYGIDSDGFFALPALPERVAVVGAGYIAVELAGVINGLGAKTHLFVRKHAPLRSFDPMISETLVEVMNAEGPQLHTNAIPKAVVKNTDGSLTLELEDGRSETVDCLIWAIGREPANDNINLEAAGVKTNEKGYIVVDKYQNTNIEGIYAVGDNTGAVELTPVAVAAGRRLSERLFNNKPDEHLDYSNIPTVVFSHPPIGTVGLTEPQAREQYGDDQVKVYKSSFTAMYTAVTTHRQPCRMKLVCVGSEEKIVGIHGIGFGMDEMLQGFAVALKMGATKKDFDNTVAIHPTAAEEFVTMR

Usually Km stands for the concentration of substrate that gives half-maximal velocity. One may read the Vmax as the top rate of the reaction or transport when substrate is in excess. For NorW (Escherichia coli K-12), in the series on O=[Te](O)O (1 mM NADH, pH 11, 42 °C), the Km came to 694.9 µM and the Vmax was found to be 5350 µmol/min/mg.

For YkgC (Escherichia coli K-12), in the series on O=[Te](O)O (1 mM NADH, pH 9, 37 °C), the Km came out at 517.1 µM and the Vmax came to 2700 µmol/min/mg.

Consider TrxB (Escherichia coli K-12), for which, in the series on O=[Te](O)O (1 mM NADPH, pH 10, 37 °C), the Km was found to be 114.5 µM and the Vmax was 9590 µmol/min/mg.

As for `O=[Te](O)O` [tellurite], the “Ki apparent” value came to 63.01 µM on E3, 37.13 µM at TrxB and 232.7 µM on GorA.

AhpF (Escherichia coli K-12): in the series on O=[Te](O)O (1 mM NADH, pH 10, 37 °C), the Km was 819.6 µM and the Vmax was determined as 77900 µmol/min/mg.

Regarding GorA (Escherichia coli K-12), in the series on O=[Te](O)O (1 mM NADPH, pH 9, 37 °C), the Michaelis-Menten constant (Km) was 89.47 µM and the Vmax came out at 6310 µmol/min/mg.

As to E3 (Escherichia coli K-12), in the series with O=[Te](O)O (1 mM NADPH, pH 6, 37 °C), the Km stood at 47.94 µM and the maximum rate (Vmax) came out at 84.5 µmol/min/mg.
